The target in assay [1] is MUC5AC expressed by CFPAC-1 pancreatic tumor cells (human) (UniProt P98088). As to the kind of experiment: immunofluorescence, fixed and permeabilized CFPAC-1 cells, 2 µg/ml.
The target is the same in assay [2]. As to the kind of experiment: flow cytometry, CFPAC-1 pancreatic tumor cells.
In assay [3] the target is MUC5AC (human) (UniProt P98088). As to the kind of experiment: FACS, SW480 cells, 2 µg/ml FITC antibody.
Assay [4] concerns the target MUC5AC expressed by CFPAC-1 pancreatic tumor cells (human) (UniProt P98088). As to the kind of experiment: FACS, CFPAC cells, 2 µg/ml FITC antibody.
Assay [5] addresses MUC5AC (human) (UniProt P98088). As to the kind of experiment: FACS, Colo-205 cells, 2 µg/ml FITC antibody. (Flow cytometry measures light scatter and fluorescence of single cells or particles in a stream.)
Assay [6] has as its target MUC5AC expressed by LS174T colorectal tumor cells (human) (UniProt P98088). As to the kind of experiment: FACS, LS174 cells, 2 µg/ml FITC antibody.
Assay [7] has as its target MUC5AC (human) (UniProt P98088). Briefly: flow cytometry, SW480 colorectal tumor cells.
Assay [8] shares this target. As to the kind of experiment: flow cytometry, Colo-205 colorectal tumor cells.
In assay [9] the target is MUC5AC expressed by LS174T colorectal tumor cells (human) (UniProt P98088). Briefly: flow cytometry, LS174T colorectal tumor cells.
Assay [10] deals with MUC5AC expressed by CFPAC-1 pancreatic tumor cells (human) (UniProt P98088). Briefly: rosetting assay, antibody-coupled beads on CFPAC-1 cells.

MUC5AC expressed by LS174T colorectal tumor cells (human), sequence (P98088 other isoform, or with tags, fused parts or gaps limits assumed, change not shown): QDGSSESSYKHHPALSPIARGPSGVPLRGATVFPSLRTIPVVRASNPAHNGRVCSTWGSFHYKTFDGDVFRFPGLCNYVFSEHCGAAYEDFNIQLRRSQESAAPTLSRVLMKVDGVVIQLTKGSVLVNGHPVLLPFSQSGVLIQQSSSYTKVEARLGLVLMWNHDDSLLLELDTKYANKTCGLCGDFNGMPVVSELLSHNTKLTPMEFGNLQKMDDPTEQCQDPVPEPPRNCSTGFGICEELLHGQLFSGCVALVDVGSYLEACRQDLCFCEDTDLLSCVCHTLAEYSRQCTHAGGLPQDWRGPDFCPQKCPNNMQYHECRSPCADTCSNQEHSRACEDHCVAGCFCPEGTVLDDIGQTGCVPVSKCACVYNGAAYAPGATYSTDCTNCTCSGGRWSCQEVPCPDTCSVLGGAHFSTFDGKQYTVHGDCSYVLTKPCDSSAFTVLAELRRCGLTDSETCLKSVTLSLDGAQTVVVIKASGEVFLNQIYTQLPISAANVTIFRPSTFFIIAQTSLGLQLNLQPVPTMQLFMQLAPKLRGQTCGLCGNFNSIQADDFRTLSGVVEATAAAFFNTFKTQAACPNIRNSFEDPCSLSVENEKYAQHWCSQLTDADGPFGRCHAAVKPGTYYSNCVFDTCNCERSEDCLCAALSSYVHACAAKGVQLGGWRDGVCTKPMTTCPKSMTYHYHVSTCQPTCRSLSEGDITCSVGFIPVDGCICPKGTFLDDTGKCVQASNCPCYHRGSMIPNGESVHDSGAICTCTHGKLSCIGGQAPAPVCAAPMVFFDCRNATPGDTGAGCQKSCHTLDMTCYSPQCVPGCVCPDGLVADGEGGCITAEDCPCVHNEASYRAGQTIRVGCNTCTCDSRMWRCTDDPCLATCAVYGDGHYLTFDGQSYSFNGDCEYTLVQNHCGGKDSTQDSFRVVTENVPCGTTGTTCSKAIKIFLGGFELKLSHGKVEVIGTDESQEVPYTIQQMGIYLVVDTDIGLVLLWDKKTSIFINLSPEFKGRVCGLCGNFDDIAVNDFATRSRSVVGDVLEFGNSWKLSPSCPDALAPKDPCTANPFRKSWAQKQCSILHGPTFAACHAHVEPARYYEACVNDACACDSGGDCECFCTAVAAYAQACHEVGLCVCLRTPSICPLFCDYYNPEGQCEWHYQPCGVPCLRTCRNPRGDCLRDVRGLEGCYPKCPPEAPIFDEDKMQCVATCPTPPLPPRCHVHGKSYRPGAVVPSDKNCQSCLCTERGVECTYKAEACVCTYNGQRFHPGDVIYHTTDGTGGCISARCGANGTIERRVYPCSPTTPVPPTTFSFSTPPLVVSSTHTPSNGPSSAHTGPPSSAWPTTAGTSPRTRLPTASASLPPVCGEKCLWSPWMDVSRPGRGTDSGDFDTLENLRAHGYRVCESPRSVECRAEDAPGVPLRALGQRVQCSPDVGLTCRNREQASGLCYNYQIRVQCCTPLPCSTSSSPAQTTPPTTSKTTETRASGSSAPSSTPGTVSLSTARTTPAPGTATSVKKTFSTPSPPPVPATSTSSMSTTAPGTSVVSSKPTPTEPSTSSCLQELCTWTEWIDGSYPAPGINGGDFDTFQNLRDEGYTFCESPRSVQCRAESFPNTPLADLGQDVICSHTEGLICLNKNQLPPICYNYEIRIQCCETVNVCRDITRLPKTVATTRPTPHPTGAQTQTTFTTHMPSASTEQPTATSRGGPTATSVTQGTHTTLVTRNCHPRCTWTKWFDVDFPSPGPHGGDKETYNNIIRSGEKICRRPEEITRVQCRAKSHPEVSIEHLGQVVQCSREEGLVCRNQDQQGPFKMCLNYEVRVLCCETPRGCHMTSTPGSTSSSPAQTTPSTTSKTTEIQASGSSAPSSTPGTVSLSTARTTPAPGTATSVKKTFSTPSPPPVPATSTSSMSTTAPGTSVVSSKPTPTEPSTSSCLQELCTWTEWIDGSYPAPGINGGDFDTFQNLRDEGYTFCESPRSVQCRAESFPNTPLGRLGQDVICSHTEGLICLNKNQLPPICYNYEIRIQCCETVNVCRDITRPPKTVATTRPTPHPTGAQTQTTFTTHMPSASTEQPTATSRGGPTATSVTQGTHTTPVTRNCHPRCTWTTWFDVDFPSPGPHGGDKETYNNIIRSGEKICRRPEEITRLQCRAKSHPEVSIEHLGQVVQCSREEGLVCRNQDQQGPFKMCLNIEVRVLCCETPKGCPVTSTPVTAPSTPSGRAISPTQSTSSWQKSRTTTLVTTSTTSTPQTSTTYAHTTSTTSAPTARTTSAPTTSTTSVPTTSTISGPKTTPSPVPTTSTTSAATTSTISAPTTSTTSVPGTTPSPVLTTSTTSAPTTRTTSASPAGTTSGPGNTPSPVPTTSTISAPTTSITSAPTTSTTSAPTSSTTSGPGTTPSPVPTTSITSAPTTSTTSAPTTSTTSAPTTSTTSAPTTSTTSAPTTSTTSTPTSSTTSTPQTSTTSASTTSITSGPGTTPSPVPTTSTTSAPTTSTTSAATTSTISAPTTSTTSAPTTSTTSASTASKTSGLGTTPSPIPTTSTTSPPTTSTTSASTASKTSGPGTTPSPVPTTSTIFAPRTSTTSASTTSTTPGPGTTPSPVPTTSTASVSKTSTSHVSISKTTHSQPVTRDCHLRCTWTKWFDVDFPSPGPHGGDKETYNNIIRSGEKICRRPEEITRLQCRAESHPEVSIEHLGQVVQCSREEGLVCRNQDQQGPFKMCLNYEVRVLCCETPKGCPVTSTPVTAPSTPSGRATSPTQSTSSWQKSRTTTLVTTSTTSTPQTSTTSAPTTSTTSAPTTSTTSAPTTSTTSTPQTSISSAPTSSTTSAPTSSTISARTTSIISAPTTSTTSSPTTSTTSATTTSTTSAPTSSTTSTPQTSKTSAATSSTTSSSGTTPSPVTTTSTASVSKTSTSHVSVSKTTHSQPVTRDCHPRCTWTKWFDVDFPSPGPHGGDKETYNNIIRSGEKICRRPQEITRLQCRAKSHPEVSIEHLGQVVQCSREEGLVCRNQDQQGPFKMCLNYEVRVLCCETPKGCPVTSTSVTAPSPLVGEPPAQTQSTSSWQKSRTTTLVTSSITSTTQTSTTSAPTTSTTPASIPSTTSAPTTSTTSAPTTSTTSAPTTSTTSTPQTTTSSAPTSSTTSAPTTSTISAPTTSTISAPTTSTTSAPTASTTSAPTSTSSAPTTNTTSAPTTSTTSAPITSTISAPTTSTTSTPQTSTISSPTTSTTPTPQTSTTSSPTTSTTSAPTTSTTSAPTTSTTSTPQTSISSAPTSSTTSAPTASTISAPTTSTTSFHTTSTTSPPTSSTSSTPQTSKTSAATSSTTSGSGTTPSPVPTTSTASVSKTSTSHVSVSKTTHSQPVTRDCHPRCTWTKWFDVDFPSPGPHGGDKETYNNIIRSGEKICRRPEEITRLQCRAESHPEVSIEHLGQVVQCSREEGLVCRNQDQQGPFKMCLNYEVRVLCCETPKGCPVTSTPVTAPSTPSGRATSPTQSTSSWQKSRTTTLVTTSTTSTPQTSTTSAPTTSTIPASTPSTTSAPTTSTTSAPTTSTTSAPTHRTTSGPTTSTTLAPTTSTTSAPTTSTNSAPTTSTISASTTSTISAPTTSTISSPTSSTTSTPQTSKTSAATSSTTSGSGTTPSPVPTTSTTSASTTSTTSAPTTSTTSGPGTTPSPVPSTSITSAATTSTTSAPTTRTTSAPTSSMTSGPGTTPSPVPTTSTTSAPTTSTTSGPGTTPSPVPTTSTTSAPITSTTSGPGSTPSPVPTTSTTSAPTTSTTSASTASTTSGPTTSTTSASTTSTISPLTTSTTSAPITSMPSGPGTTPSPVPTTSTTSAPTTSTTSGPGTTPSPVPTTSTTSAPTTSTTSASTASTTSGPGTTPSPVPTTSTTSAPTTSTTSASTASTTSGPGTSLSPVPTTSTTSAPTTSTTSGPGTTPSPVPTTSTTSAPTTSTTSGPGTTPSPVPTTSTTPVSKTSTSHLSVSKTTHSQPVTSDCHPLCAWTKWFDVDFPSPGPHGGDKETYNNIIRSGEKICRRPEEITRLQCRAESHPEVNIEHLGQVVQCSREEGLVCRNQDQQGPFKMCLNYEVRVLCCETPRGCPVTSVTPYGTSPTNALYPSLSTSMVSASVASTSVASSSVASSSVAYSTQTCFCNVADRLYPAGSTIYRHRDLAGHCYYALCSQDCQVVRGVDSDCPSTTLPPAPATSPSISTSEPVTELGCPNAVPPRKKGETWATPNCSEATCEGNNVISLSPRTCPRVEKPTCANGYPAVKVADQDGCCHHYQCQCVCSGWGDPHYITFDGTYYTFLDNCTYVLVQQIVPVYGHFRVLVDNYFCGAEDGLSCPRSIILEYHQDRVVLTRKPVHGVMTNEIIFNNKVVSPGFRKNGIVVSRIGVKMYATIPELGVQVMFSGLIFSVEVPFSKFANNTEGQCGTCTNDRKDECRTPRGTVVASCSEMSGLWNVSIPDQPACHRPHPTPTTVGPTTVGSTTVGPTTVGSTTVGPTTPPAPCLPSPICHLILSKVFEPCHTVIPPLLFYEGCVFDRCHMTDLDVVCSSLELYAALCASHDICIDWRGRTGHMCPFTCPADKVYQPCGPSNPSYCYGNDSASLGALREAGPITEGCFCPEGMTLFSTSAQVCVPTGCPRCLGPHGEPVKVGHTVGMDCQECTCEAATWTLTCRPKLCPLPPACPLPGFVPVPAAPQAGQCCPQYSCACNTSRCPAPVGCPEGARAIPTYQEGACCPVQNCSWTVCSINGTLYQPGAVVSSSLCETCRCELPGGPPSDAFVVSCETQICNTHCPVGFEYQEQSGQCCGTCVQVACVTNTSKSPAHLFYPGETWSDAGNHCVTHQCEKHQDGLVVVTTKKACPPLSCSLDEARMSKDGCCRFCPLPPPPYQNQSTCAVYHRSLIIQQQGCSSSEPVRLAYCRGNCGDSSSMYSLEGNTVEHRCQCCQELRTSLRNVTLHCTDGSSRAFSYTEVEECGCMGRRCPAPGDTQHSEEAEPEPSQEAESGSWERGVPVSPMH
MUC5AC (human), sequence (P98088 other isoform, or with tags, fused parts or gaps limits assumed): as the sequence (P98088 other isoform, or with tags, fused parts or gaps limits assumed, change not shown) above
MUC5AC expressed by CFPAC-1 pancreatic tumor cells (human), sequence (P98088 other isoform, or with tags, fused parts or gaps limits assumed): as the sequence (P98088 other isoform, or with tags, fused parts or gaps limits assumed, change not shown) above

1-13M1 (Abcam Inc.) (antibody) had a % of cells stained in assay [1] of 100%.

In turn, 2-11M1 (Abcam Inc.) (antibody) registered a % of cells stained in assay [1] of less than 5%.

As for Isotype control antibody, the % Cells Stained in [2] stood at 1.79%; in assay [7], 3.38%; in assay [8], 2.33%; in assay [9], 3.85%. Besides, the mfi in assay [2] is 25 mfi; in assay [7] it was 56 mfi; in assay [8], 34 mfi; in [9], 35 mfi. For the same substance, the Percent positive in [3] was 3.38%; in assay [4] it was 1.79%; in assay [5], 2.33%; in assay [6], 3.85%.

The substance human IgG (antibody) gave a Rosetted cells (>8 beads) in assay [10] of 0%.

The record behind these values is patent US20190322720A1.
